Test results taken from US20210380703A1 (RIGEL PHARMACEUTICALS, published 2021).
Substitutions are numbered along the chain they refer to.

B1: 375_B03 (antibody, V domains shown)
VH: EVQLLESGGGLVQPGGSLRLSCAASGFTFSSYSMNWVRQAPGKGLEWVAGINYNGGYTSYADSVKGRFTISRDNSKNTLYLQMNSLRAEDTAVYYCARGATWHDTHLDYWGQGTLVTVSS
VL: DIQMTQSPSSLSASVGDRVTITCRASQSILTYLNWYQQKPGKAPKLLIYAATSRASGVPSRFSGSGSGTDFTLTISSLQPEDFATYYCQQSYDSPLTFGGGTKVEIK
notes: VH/VL only
B2: 365_C04 (antibody, V domains shown)
VH: B1 VH with S30D, G50N, T58K, S59G
VL: B1 VL with L47V, R54L, S94T
notes: VH/VL only
B3: 365_A09 (antibody, V domains shown)
VH: B1 VH with S33G, N35H, G50S
VL: B1 VL with T31S, L33V, S94L
notes: VH/VL only
B4: 365_A08 (antibody, V domains shown)
VH: B1 VH with G50S, T58K
VL: B1 VL with L30I, L47V, Y92D, D93N, S94T
notes: VH/VL only
B5: 365_C11 (antibody, V domains shown)
VH: B1 VH with T58K, G99S, T101N
VL: B1 VL with L30I, L47V, A51V, D93S, S94L
notes: VH/VL only
B6: 365_B07 (antibody, V domains shown)
VH: B1 VH with S33G, N35H, G50S, G55S, G99S, T101N, H106A
VL: B1 VL with D93E, S94N
notes: VH/VL only
B7: 365_C10 (antibody, V domains shown)
VH: B1 VH with S33G, N35H, G50S, G99S, T101N, H106A
VL: B1 VL with T31S, L33V, R54L, D93E
notes: VH/VL only
B8: 365_C02 (antibody, V domains shown)
VH: B1 VH with S30D, A49S, G50N, T58K, S59G
VL: B1 VL with L30S, L47V, A55H, D93E, S94N
notes: VH/VL only
B9: 365_A12 (antibody, V domains shown)
VH: B1 VH with S33G, N35H, R98K, G99S, T101N
VL: B1 VL with L33V, A55H, D93E, S94N
notes: VH/VL only
B10: 365_A03 (antibody, V domains shown)
VH: B1 VH with G55S, T58K, S59G, G99S, T101N, H106A
VL: B1 VL with T31S, L47V, A51V
notes: VH/VL only
B11: 365_D02 (antibody, V domains shown)
VH: B1 VH with N35H, G50S
VL: B1 VL with L30V, R54L, S94N
notes: VH/VL only
B12: 365_B11 (antibody, V domains shown)
VH: B1 VH with S33G, N35H, G99S, T101N, H106A
VL: B1 VL with L30I, T31S, L47V, A51T, A55H
notes: VH/VL only
B13: 365_A11 (antibody, V domains shown)
VH: B1 VH with S30D, S31D, S33G, A49S, G55S, G99S, T101N, H106A
VL: B1 VL with T31S, L47V, R54L, D93E
notes: VH/VL only
B14: 369_F08 (antibody, V domains shown)
VH: B1 VH with S31D, S33G, N35H, A49S, G55S, T101N, H106A
VL: B1 VL with T31S, T52S, R54L, A55Q, S94L
notes: Group III

target: T1, Human ACVR2A (human, UniProt P27037 20-135, limits assumed); experiment: ELISA
T1 construct: also called activin receptor, type II A
Description: (§1) The binding of ACVR2A-specific monoclonal antibodies to human ACVR2A, mouse ACVR2A, biotinylated goat anti-human kappa light chain (positive control) and human Fc (negative control) were determined by ELISA.
Further: test concentration or dose not given here.

T1 sequence (P27037 20-135 limits assumed): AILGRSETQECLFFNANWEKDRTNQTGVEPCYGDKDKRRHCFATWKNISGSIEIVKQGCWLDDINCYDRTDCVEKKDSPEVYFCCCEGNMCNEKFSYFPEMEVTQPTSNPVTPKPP

Row | optical density | Binder
1 | 3.68 OD | B1
2 | 2.26 OD | B2
3 | 2.45 OD | B3
4 | 1.58 OD | B4
5 | 2.66 OD | B5
6 | 2.11 OD | B6
7 | 2.45 OD | B7
8 | 2.15 OD | B8
9 | 2.67 OD | B9
10 | 3.4 OD | B10
11 | 2.54 OD | B11
12 | 2.84 OD | B12
13 | 2.04 OD | B13

target: Mouse ACVR2A (mouse, UniProt P27038 20-135, limits assumed); experiment: ELISA
Description: as §1

Chain of Mouse ACVR2A (P27038 20-135 limits assumed): as the sequence (P27037 20-135 limits assumed) above, with K20R, V73I counted along it

Row | optical density | Binder
14 | 3.7 OD | B1
15 | 2.67 OD | B2
16 | 2.48 OD | B3
17 | 1.59 OD | B4
18 | 2.78 OD | B5
19 | 2.21 OD | B6
20 | 2.44 OD | B7
21 | 2.33 OD | B8
22 | 2.87 OD | B9
23 | 3.24 OD | B10
24 | 2.7 OD | B11
25 | 2.75 OD | B12
26 | 1.94 OD | B13

target: T2, biotinylated goat anti-human kappa light chain; experiment: ELISA, positive control
T2 construct: positive control of the ELISA
Description: as §1

Row | optical density | Binder
27 | 3.1 OD | B14

target: T3, Goat anti-Human Kappa; experiment: ELISA; positive control
T3 construct: Positive control; also called biotinylated goat anti-human kappa light chain
Description: as §1

Row | optical density | Binder
28 | 3.24 OD | B1
29 | 3.55 OD | B2
30 | 3.3 OD | B3
31 | 3.2 OD | B4
32 | 3.67 OD | B5
33 | 3.23 OD | B6
34 | 3.41 OD | B7
35 | 3.45 OD | B8
36 | 3.67 OD | B9
37 | 3.44 OD | B10
38 | 3.52 OD | B11
39 | 3.58 OD | B12
40 | 3.27 OD | B13
